Data published in patent US20150210756A1 (NEW YORK UNIVERSITY, published 2015).

What was measured:
[1] = biological target: T1, LukS-PV (S. aureus); assay: ELISA on purified, recombinant LukS-PV
T1 construct: also called Panton-Valentine leukocidin S; LukS-PV subunit of the PVL leukotoxin
T1 chain: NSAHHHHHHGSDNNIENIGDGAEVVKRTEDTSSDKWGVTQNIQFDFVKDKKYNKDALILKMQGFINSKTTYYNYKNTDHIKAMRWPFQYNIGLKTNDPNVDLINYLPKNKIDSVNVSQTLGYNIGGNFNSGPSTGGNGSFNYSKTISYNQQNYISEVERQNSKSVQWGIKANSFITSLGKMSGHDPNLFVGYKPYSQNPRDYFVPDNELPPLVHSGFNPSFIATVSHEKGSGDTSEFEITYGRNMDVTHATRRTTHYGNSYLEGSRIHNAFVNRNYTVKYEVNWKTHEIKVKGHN

[2] = biological target: T2, HlgC (S. aureus, UniProt Q07227 30-315); assay: ELISA on purified, recombinant HlgC
T2 construct: also called gamma hemolysin C; HlgC subunit
T2 sequence: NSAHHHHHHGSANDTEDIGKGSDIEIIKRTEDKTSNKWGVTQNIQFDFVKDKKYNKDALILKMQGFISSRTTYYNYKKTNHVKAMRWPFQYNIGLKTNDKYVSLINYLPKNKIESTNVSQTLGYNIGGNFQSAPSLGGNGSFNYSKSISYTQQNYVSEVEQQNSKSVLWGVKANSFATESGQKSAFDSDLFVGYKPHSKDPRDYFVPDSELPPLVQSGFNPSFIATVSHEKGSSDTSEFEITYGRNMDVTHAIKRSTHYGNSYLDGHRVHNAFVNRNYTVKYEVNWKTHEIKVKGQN

[3] = biological target: T3, Recombinant LukA′B toxoid complex (S. aureus, UniProt Q2FFA2 28-351; P21224 30-338); assay: ELISA after cis-display panning
T3 construct: also called modified LukA′B toxoid complex
T3 sequence 1: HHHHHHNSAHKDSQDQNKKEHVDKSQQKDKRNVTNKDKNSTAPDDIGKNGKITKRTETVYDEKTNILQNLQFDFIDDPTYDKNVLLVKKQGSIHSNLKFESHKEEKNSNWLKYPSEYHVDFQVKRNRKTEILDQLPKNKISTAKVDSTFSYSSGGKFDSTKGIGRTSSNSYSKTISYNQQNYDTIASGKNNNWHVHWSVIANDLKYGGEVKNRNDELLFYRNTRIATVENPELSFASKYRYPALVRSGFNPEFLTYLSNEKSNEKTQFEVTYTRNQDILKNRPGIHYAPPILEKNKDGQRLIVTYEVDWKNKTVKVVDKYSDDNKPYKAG
T3 sequence 2: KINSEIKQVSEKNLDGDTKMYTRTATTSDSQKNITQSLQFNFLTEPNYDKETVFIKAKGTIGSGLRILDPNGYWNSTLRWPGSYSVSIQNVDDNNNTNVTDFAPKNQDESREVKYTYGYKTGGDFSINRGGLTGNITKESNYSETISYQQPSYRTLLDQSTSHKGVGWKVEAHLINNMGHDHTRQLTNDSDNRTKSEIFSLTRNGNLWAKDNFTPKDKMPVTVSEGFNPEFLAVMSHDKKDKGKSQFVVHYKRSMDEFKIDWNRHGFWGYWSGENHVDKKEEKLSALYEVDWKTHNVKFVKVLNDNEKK

[4] = biological target: T4, HlgA (S. aureus, UniProt P0A071 30-309); assay: ELISA on purified, recombinant HlgA
T4 construct: also called gamma hemolysin A; HlgA subunit
T4 sequence: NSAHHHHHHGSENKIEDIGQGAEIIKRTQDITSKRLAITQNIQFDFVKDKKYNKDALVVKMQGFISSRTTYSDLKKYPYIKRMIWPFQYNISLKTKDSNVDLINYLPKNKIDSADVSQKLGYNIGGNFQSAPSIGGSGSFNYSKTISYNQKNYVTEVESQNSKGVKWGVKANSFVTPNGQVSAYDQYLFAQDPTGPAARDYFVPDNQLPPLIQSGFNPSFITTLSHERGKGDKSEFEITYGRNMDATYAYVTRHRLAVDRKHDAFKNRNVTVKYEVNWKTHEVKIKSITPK

[5] = biological target: T5, Protein A (Staphylococcus aureus, UniProt P38507 37-477); assay: direct ELISA on coated biotinylated Protein A
T5 construct: also called S. aureus Protein A; SpA

[6] = biological target: human FcγRI (human, UniProt P12314 16-288); assay: AlphaScreen competition against biotinylated IgG1
Sequence of human FcγRI (P12314 16-288 limits assumed): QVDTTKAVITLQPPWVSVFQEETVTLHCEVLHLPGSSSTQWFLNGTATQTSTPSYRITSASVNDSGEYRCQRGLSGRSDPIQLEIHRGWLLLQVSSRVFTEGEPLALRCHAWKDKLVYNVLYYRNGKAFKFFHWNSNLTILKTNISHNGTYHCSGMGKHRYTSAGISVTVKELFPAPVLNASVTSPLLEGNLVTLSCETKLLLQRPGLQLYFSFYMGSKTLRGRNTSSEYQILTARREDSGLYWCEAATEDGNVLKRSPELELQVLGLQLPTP

[7] = biological target: human FcγRIIIa (V158) (human, UniProt P08637 17-208); assay: AlphaScreen competition against biotinylated IgG1
Sequence of human FcγRIIIa (V158) (P08637 17-208 F176V limits assumed): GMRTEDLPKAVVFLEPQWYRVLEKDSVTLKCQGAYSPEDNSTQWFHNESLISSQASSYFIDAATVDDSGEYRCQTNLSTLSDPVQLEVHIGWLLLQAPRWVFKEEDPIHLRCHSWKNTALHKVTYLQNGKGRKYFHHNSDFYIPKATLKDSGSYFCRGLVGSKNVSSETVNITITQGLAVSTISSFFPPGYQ

B1: Luk647 (designed binder)
chain: LPAPKNLVVSRVTEDSARLSWTAPDAAFDSFSIYYGEWDPTGEAIVLTVPGSERSYDLTGLKPGTEYWVLIVGVKGGSTSAPLSAIFTT
binding result [1]: binds

B2: Luk188 (designed binder)
chain: LPAPKNLVVSRVTEDSARLSWTAPDAAFDSFHIHYWEFNPAGEAIVLTVPGSERSYDLTGLKPGTEYFVGIHGVKGGGISWPLSAIFTT
binding result [2]: binds

B3: Luk17 (designed binder)
chain: LPAPKNLVVSRVTEDSARLSWTAPDAAFDSFWITYEEKFYRGEAIVLTVPGSERSYDLTGLKPGTEYKVWIVGVKGGQGSWPLSAIFTT
notes: also called Luk17 anti-LukAB FN3 domain; not shown: C-terminal poly-histidine tag
binding result [3]: binds

B4: Luk357 (designed binder)
chain: LPAPKNLVVSRVTEDSARLSWTAPDAAFDSFTIHYFESLLTGEAISLVVPGSERSYDLTGLKPGTEYLVPIYGVKGGFISQPLIAIFTT
binding result [2]: binds

B5: Luk19 (designed binder)
chain: LPAPKNLVVSRVTEDSARLSWYHAIHRLNHFDSFLIQYQESEKVGEAIVLTVPGSERSYDLAGLKPGTEYTVSIYGVLPDAFVSSNPLSAIFTT
notes: not shown: C-terminal poly-histidine tag
binding result [3]: binds

B6: Luk20 (designed binder)
chain: LPAPKNLVVSRVTEDSARLSWYHAIHRLNHFDSFLIQYQESEKVGEAIVLTVPGSERSYDLTGLKPGTEYTVSIYGVLPDAFVSSNPLSAIFTT
notes: as for B5
binding result [3]: binds

B7: Luk151 (designed binder)
chain: LPAPKNLVVSRVTEDSARLSWTAPDAAFDSFGITYTEVYWWGEAIVLTVPGSERSYDLTGLKPGTEYTVTIPGVKGGWISAPLSAIFTT
binding result [4]: binds

B8: Luk24 (designed binder)
chain: LPAPKNLVVSRVTEDSARLSWTAPDAAFDSFQIGYFELWPNGEAIVLTVPGSERSYDLTGLKPGTEYEVFIRGVKGGLYSYPLSAIFTT
notes: as for B5
binding result [3]: binds

B9: CR5133 PRASA A6 LC-D (Construct 5) (other)
heavy: EVQLVETGGGLVKPGGSLRLSCSASRFSFRDYYMTWIRQAPGKGPEWVSHISGSGSTIYYADSVRGRFTISRDNAKSSLYLQMDSLQADDTAVYYCARGGRATSYYWVHWGPGTLVTVSSASTKGPSVFPLAPSSKSTSGGTAALGCLVKDYFPEPVTVSWNSGALTSGVHTFPAVLQSSGLYSLSSVVTVPSSSLGTQTYICNVNHKPSNTKVDKKVEPKSCDKTHTCPPCPAPPVAGPDVFLFPPKPKDTLMISRTPEVTCVVVDVSHEDPEVKFNWYVDGVEVHNAKTKPREEQYNSTYRVVSVLTVLHQDWLNGKEYKCKVSNAALPAPIAKTISKAKGQPREPQVYTLPPSRDELTKNQVSLTCLVKGFYPSDIAVEWESNGQPENNYKTTPPVLDSDGSFFLYSKLTVDKSRWQQGNVFSCSVMHEALHNRFTQKSLSLSPGK
light: EIVLTQSPATLSLSPGERATLSCRASQSVSGYLGWYQQKPGQAPRLLIYGASSRATGIPDRFSGSGSGTDFTLTISRLEPEDFAVYYCQQYGSSPLTFGGGTKLEIKRTVAAPSVFIFPPSDEQLKSGTASVVCLLNNFYPREAKVQWKVDNALQSGNSQESVTEQDSKDSTYSLSSTLTLSKADYEKHKVYACEVTHQGLSSPVTKSFNRGECGGGGSGGGGSGGGGSGGGGSLPAPKNLVVSRVTEDSARLSWRAKPWAPKFDSFLIQYQESEKVGEAIVLTVPGSERSYDLTGLKPGTEYTVSIYGVKASEKFIESNPLSAIFTT
binding result [5]: no binding | binding result [6]: no binding | binding result [7]: binds

B10: CR5133 PRASA A6 LC-D HC-AB (Construct 7) (other)
heavy: EVQLVETGGGLVKPGGSLRLSCSASRFSFRDYYMTWIRQAPGKGPEWVSHISGSGSTIYYADSVRGRFTISRDNAKSSLYLQMDSLQADDTAVYYCARGGRATSYYWVHWGPGTLVTVSSASTKGPSVFPLAPSSKSTSGGTAALGCLVKDYFPEPVTVSWNSGALTSGVHTFPAVLQSSGLYSLSSVVTVPSSSLGTQTYICNVNHKPSNTKVDKKVEPKSCDKTHTCPPCPAPPVAGPDVFLFPPKPKDTLMISRTPEVTCVVVDVSHEDPEVKFNWYVDGVEVHNAKTKPREEQYNSTYRVVSVLTVLHQDWLNGKEYKCKVSNAALPAPIAKTISKAKGQPREPQVYTLPPSRDELTKNQVSLTCLVKGFYPSDIAVEWESNGQPENNYKTTPPVLDSDGSFFLYSKLTVDKSRWQQGNVFSCSVMHEALHNRFTQKSLSLSPGKGGGGSGGGGSGGGGSGGGGSMLPAPKNLVVSRVTEDSARLSWTAPDAAFDSFWITYEEKFYRGEAIVLTVPGSERSYDLTGLKPGTEYKVWIVGVKGGQGSWPLSAIFTT
light: EIVLTQSPATLSLSPGERATLSCRASQSVSGYLGWYQQKPGQAPRLLIYGASSRATGIPDRFSGSGSGTDFTLTISRLEPEDFAVYYCQQYGSSPLTFGGGTKLEIKRTVAAPSVFIFPPSDEQLKSGTASVVCLLNNFYPREAKVQWKVDNALQSGNSQESVTEQDSKDSTYSLSSTLTLSKADYEKHKVYACEVTHQGLSSPVTKSFNRGECGGGGSGGGGSGGGGSGGGGSLPAPKNLVVSRVTEDSARLSWRAKPWAPKFDSFLIQYQESEKVGEAIVLTVPGSERSYDLTGLKPGTEYTVSIYGVKASEKFIESNPLSAIFTT
notes: also called PRASA A6 LC-D AB construct 7
binding result [5]: no binding | binding result [6]: no binding | binding result [7]: binds

B11: Luk129 (designed binder)
chain: LPAPKNLVVSRVTEDSARLSWTAPDAAFDSFNINYPEEFHGGEAIVLTVPGSERSYDLTGLKPGTEYEVWIWGVKGGSSSNPLSAIFTT
binding result [4]: binds

B12: CR5133 PRASA A6 HC-AB (Construct 6) (other)
heavy: EVQLVETGGGLVKPGGSLRLSCSASRFSFRDYYMTWIRQAPGKGPEWVSHISGSGSTIYYADSVRGRFTISRDNAKSSLYLQMDSLQADDTAVYYCARGGRATSYYWVHWGPGTLVTVSSASTKGPSVFPLAPSSKSTSGGTAALGCLVKDYFPEPVTVSWNSGALTSGVHTFPAVLQSSGLYSLSSVVTVPSSSLGTQTYICNVNHKPSNTKVDKKVEPKSCDKTHTCPPCPAPPVAGPDVFLFPPKPKDTLMISRTPEVTCVVVDVSHEDPEVKFNWYVDGVEVHNAKTKPREEQYNSTYRVVSVLTVLHQDWLNGKEYKCKVSNAALPAPIAKTISKAKGQPREPQVYTLPPSRDELTKNQVSLTCLVKGFYPSDIAVEWESNGQPENNYKTTPPVLDSDGSFFLYSKLTVDKSRWQQGNVFSCSVMHEALHNRFTQKSLSLSPGKGGGGSGGGGSGGGGSGGGGSMLPAPKNLVVSRVTEDSARLSWTAPDAAFDSFWITYEEKFYRGEAIVLTVPGSERSYDLTGLKPGTEYKVWIVGVKGGQGSWPLSAIFTT
light: EIVLTQSPATLSLSPGERATLSCRASQSVSGYLGWYQQKPGQAPRLLIYGASSRATGIPDRFSGSGSGTDFTLTISRLEPEDFAVYYCQQYGSSPLTFGGGTKLEIKRTVAAPSVFIFPPSDEQLKSGTASVVCLLNNFYPREAKVQWKVDNALQSGNSQESVTEQDSKDSTYSLSSTLTLSKADYEKHKVYACEVTHQGLSSPVTKSFNRGEC
notes: also called mAb 5133 PRASA A6 HC LukAB
binding result [5]: no binding | binding result [6]: no binding | binding result [7]: binds

B13: Luk540 (designed binder)
chain: LPAPKNLVVSRVTEDSARLSWTAPDAAFDSFHIEYPEDTEQGEAIVLTVPGSERSYDLTGLKPGTEYNVHITGVKGGSKSAPLSAIFTT
binding result [1]: binds
